Experimental data taken from article doi:10.1101/2025.11.17.688911.

Key:
[1] = target: surface-immobilized biotinylated microtubules, Q2XVP4;Q767L7; assay: fluorescence intensity of GFP-tagged MAP9-MTBD on surface-immobilized MTs (fluorescence microscopy); details: 100 nM MAP9 construct (stated for panel h); parent: est. 0.72; read off a plot
[2] = target: surface-immobilized biotinylated microtubules (pig) (UniProt Q2XVP4); assay: TIRF microscopy, fluorescence intensity of GFP-tagged MAP on microtubules; biotinylated MTs held on a streptavidin-coated coverslip; one concentration of WT or mutant MAP9 construct (100 nM in Fig. 1h-i and Extended Data Fig. 6b); BRB80, 100 mM salt

Row | Substance | response [1] | percent reduction of MT binding against WT MAP9-MTBD [2]
1 | MAP9-MTBD (Human MAP9 (302–647)::GFP::strepII) (from UniProt Q49MG5) F473A; F516A | 0.17 a.u. | 
2 | MAP9-MTBD (Human MAP9 (302–647)::GFP::strepII) (from UniProt Q49MG5) W432A; W476A; W519A; W563A; W606A | 0.04 a.u. | 
3 | MAP9-MTBD R1R2 (from UniProt Q49MG5 302-647) (domain or fragment) |  | 80%
